Legend:
Format in all cases: cell-based, Yarrowia
olivetolic acid [1] = test: MPT4.1 with and without GPS1.1 fusion vs MPT4 fusion, in vivo assay (Example 5); details: 3 mM olivetolic acid
Experimental: As described below, plasmids pCL-SE-0337.MPT4.1 and pCL-SE-0753 were transformed into strain sCL-SE-0128. Multiple colonies per transformation were precultured for 24 h in YNB containing glucose (2%), casamino acids (0.5%), and MES (100 mM pH 6.5). Pre-culture was used to inoculate assay medium comprised of YNB containing glucose (6%), casamino acids (0.5%), MES (100 mM pH 6.5), and olivetolic acid (3 mM). Cultures were quenched with equal volume of ethanol after 48 h total growth and assayed for CBGA and FCBGA. Averages and standard deviations were calculated from replicates.
(§1) Overnight YPD (10 g/L yeast extract, 20 g/L peptone, 2% dextrose) cultures were inoculated from glycerol stocks of the appropriate strain and grown at 30° C. with 250 rpm shaking. Once cultures had reached an OD600 of 4-6, cultures were centrifuged at 500×g for 5 min, supernatants were discarded, and cell pellets were resuspended in equal volume of water. Resuspended cells were centrifuged at 500×g for 5 min, supernatants were discarded, and cells were resuspended in a volume (75 μL×OD×Vculture) of transformation cocktail (45% PEG-400, 0.1 M LiAc, 0.1 M DTT, and 25 ug/100 μL SS Salmon Sperm DNA). For each transformation, >1 μg of plasmid DNA was added to 55 μL cells/transformation cocktail and vortexed for 2 s. Transformations were incubated at 39° C. for 1 h with 250 rpm shaking. Transformations were resuspended in 750 μL YPD with 1 M sorbitol and recovered at 30° C. overnight with 250 rpm shaking. The next day, transformations were centrifuged at 500×g for 5 min, supernatants were discarded, and cell pellets were resuspended in 750 YPD. Resuspended transformations were plated on YPD with appropriate selection or YNBD (6.71 g/L yeast nitrogen base+nitrogen, 0.5% casamino acids, 2% dextrose) agar plates and grown at 30° C. for 2 days. Individual colonies were patched onto YPD plates with appropriate selection or YNBD plates and grown at 30° C. overnight. Patches were used to inoculate 0.5 mL YPD with appropriate selection or YNBD precultures in 96 w blocks and grown at 30° C. for 24-48 h with 1000 rpm shaking. For assays, 0.5 mL YPD with appropriate selection or YNBD cultures containing substrate were inoculated with 2 μL from precultures and grown at 30° C. for 2-4 days with 1000 rpm shaking with 2% glucose added every 24 h. Assay cultures were quenched by addition of 0.5 mL ethanol with 0.2% formic acid and 0.5 mg/mL pentyl-benzoic acid. Precipitates were pelleted by centrifuging at 4600×g for 10 min and then 200 μL was transferred to fresh plates, sealed, and analyzed via HPLC.
(§2) All samples were quenched with equal volume of EtOH containing 0.2 mg/mL internal standard (3,5-Diisopropyl-2-hydroxybenzoic acid CAS #2215-21-6) centrifuged, and clarified solutions were analyzed by HPLC-MS
(§3) • Column: 2.1×50 mm COSMOCORE PBr (Nacalai USA, Inc.) • Mobile Phase: A; 0.1% formic acid in water, B; 0.1% formic acid in acetonitrile • Flow: 0.45 mL/min • Temp: % 50 Celsius • Gradient: 20%B at 0 min, 70%B at 2.3 min, 89% B at 4.2 min, 20% B at 4.3 min, 20%B at 6 min

olivetolic acid [2] = test: GPS1.1 fusions of MPT21 mutants, OA feed (Example 8, Table 10); details: 3 mM olivetolic acid, 6% glucose, 48 h quench; strain sCL-SE-0128
Experimental: as §1, §2, §3

divarinic acid = test: GPS1.1 fusions of MPT21 mutants, DVA feed (Example 9, Table 12); details: 2 mM divarinic acid, 2% glucose, quenched after 48 h; strain sCL-SE-0128
Experimental: as §1, §2, §3

olivetolic acid [3] = test: GPS-APT fusions, OA feed in vivo assay (Example 11)
Procedure, shortened: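 Yeast strain sCL-SE-0128 carrying GPS1.1–APT73.77 fusion plasmids (N- or C-terminal, various linkers) was precultured 48 h, then grown in YNB/glucose/casamino acids/MES pH 6.5 with 2 mM olivetolic acid. After 48 h total growth, cultures were quenched with equal-volume ethanol and CBGA/FCBGA measured by HPLC-MS against internal standard.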

[4] = 6% glucose, 48 h quench, strain sCL-SE-0128
[5] = olivetolic acid feed as in Example 8, 48 h quench, strain sCL-SE-0128

B1: GPS1.1-F11-MPT4.1: fusion of GPS1.1 and MPT4.1 via F11 linker, SEQ ID NO: 56 (protein)
chain: MSKAKFESVFPRISEELVQLLRDEGLPQDAVQWFSDSLQYNCVGGKLNRGLSVVDTYQLLTGKKELDDEEYYRLALLGWLIELLQAFWLVSDDIMDESKTRRGQPCWYLKPKVGMIAIWDAFMLESGIYILLKKHFRQEKYYIDLVELFHDISFKTELGQLVDLLTAPEDEVDLNRFSLDKHSFIVRYKTAYYSFYLPVVLAMYVAGITNPKDLQQAMDVLIPLGEYFQVQDDYLDNFGDPEFIGKIGTDIQDNKCSWLVNKALQKATPEQRQILEDNYGVKDKSKELVIKKLYDDMKIEQDYLDYEEEVVGDIKKKIEQVDESRGFKKEVLNAFLAKIYKRQKGGAEAAAKEAAAKAGGSGGGSGGGGSGGSGGGGSGGGGSMSDNSIATKILNFGHTCWKLQRPYAVKGMISIACGLFGRELFNNRHLFSWGLMWKAFFALVPILSFNFFAAIMNQIYDVDIDRINKPDLPLVSGEMSIETAWILSIIVALTGLIVTIKLKSAPLFVFIYIFGIFAGFAYSVPPIRWKQYPFTNFLITISSHVGLAFTSYSATTSALGLPFVWRPAFSFIIAFMTVMGMTIAFAKDISDIEGDAKYGVSTVATKLGARNMTFVVSGVLLLNYLVSISIGIIWPQVFKSNIMILSHAILAFCLIFQTRELALANYASAPSRQFFEFIWLLYYAEYFVYVFI
modifications: GPS1.1-F11-MPT4.1, geranyl diphosphate synthase, point mutant membrane-bound prenyltransferase fusion protein
CBGA (olivetolic acid [1]; [4]): 425 ± 11 µM | FCBGA (olivetolic acid [1]; [4]): 34 ± 1 µM | CBGA/FCBGA (olivetolic acid [1]; 48 h quench, product ratio): 12.6 | increase of the titer of CBGA (olivetolic acid [1]; fusion vs unfused MPT4.1, 48 h): 67% | CBGA (olivetolic acid [2]): 358 ± 0 µM | FCBGA (olivetolic acid [2]): 27 ± 0 µM | CBGVA (divarinic acid): 91 ± 6 µM | FCBGVA (divarinic acid): 0 ± 0 µM | CBGA (olivetolic acid [3]; [5]): 365 ± 22 µM | FCBGA (olivetolic acid [3]; [5]): 26 ± 1 µM | CBGA/FCBG (olivetolic acid [3]; olivetolic acid feed, 48 h quench, product ratio): 14.3
